Results on one molecule are retold here after PMC6677920 (2019).

For this assay, the target named is recombinant bovine respiratory syncytial virus fusion (F) protein, purified (bovine respiratory syncytial virus, UniProt P22167 26-513). Briefly: SPR.

B1: hybrid Fab B4* (B4 HC/B13 LC) (Fab, V domains shown)
VH: QVQLQESGPSLVKPSQTLSLTCTVSGFSLSSYSVSWVRQAPGKTLEWLGDASNGGIIYYNPALKSRLGITRDNSKSQVSLSLNTITPEDTATYYCAKCSVGDSGSYACTGRKGEYVDAWGQGLLVTVSS
VL: QAVLTQPPSVSGSLGQRVSITCSGSSDNIGIFAVGWYQQVPGSGLRTIIYGNTKRPSGVPDRFSGSKSGNTATLTINSLQAEDEADYFCVCGESKSATPVFGGGTTLTVL
Take B1: the Kd (as a rule, the concentration at which binding is half-saturated) is roughly 12 µM.
